B1: OR4K15 (parent)
chain: GUUAACGGUCAUAGGCCAUGGAAACUAGGAGCACCAUUUCGCUGCCAGUGAAGAAAUGAACAAAGAAAAUCUGGGCCAGGCAGGCAUCAAAAGAAAUAGUCUUGCGCUCAACCAGAAAGUCUGUAAUCAUUUUAAGGGUA

In this series the parent is B1. Nature of the series: self-cleavage, relative activity (ratio to wild type); higher = more cleavage; in vitro, sequencing; the parent is a self-cleaving ribozyme.
Take GAUAACGGUCAUAGGCCAUGGAAACUAGGAGCACCAUUUCGCUGCCAGAGAAGAAAUGAACAAAGAAAAUCUGGGCCAGGCAGGCAUCAAAAGAAAUAGUCUUGCGCUCAACCAGAAAGUCUGUAAUCAUUUUAAGGGUA [U2A U49A]: the self-cleavage amounted to 1.64.

Turning to GCUAACGGUCAUAGGCCAUGGAAACUAGGAGCACCGUUUCGCUGCCAGUGAAGAAAUGAACAAAGAAAAUCUGGGCCAGGCAGGCAUCAAAAGAAAUAGUCUUGCGCUCAACCAGAAAGUCUGUAAUCAUUUUAAGGGUA [U2C A36G], the self-cleavage amounted to 1.25.

Take GCUAACGGUCAUAGGCCAUGGAAACUAGGAGCACCUUUUCGCUGCCAGUGAAGAAAUGAACAAAGAAAAUCUGGGCCAGGCAGGCAUCAAAAGAAAUAGUCUUGCGCUCAACCAGAAAGUCUGUAAUCAUUUUAAGGGUA [U2C A36U]: the self-cleavage turned out to be 1.11.

As to GCUAACGGUCAUAGGCCAUGGAAACUAGGCGCACCAUUUCGCUGCCAGUGAAGAAAUGAACAAAGAAAAUCUGGGCCAGGCAGGCAUCAAAAGAAAUAGUCUUGCGCUCAACCAGAAAGUCUGUAAUCAUUUUAAGGGUA [U2C A30C], the self-cleavage was 1.44.

As to GCUAACGGUCAUAGGCCAUGGAAACUAGGUGCACCAUUUCGCUGCCAGUGAAGAAAUGAACAAAGAAAAUCUGGGCCAGGCAGGCAUCAAAAGAAAUAGUCUUGCGCUCAACCAGAAAGUCUGUAAUCAUUUUAAGGGUA [U2C A30U], the self-cleavage is 0.98.

Turning to GAUAACGGUCAUAGGCCAUGGAAACUAGGAGCACCACUUCGCUGCCAGUGAAGAAAUGAACAAAGAAAAUCUGGGCCAGGCAGGCAUCAAAAGAAAUAGUCUUGCGCUCAACCAGAAAGUCUGUAAUCAUUUUAAGGGUA [U2A U37C], the self-cleavage came to 1.34.

Consider GAUAACGGUCAUAGGCCAUGGAAACUAGGAGCACCAUUUCGCUGCCAGUGAAGAAAUGAACAAAGAAAAUCUGGGCCAGGCAGGCAUCAAAAGAAAUAGUCUUGCGCUCAACCAGAAAGUCUGUAAUCACUUUAAGGGUA [U2A U130C], for which the self-cleavage is 0.85.

Consider GCUAACGGUCAUAGGCCAUGGAAACUGGGAGCACCAUUUCGCUGCCAGUGAAGAAAUGAACAAAGAAAAUCUGGGCCAGGCAGGCAUCAAAAGAAAUAGUCUUGCGCUCAACCAGAAAGUCUGUAAUCAUUUUAAGGGUA [U2C A27G], for which the self-cleavage was determined as 0.85.

In the case of GCUAUCGGUCAUAGGCCAUGGAAACUAGGAGCACCAUUUCGCUGCCAGUGAAGAAAUGAACAAAGAAAAUCUGGGCCAGGCAGGCAUCAAAAGAAAUAGUCUUGCGCUCAACCAGAAAGUCUGUAAUCAUUUUAAGGGUA [U2C A5U], the self-cleavage turned out to be 1.16.

As to GCUAACGGUCAUAGGCCAUGGAAACUAGGAGCACCAUUUCGCUGCCAGUGAAGAAAUGUACAAAGAAAAUCUGGGCCAGGCAGGCAUCAAAAGAAAUAGUCUUGCGCUCAACCAGAAAGUCUGUAAUCAUUUUAAGGGUA [U2C A59U], the self-cleavage amounted to 0.98.

On to GCUAACGGUCAUAGGCCAUGGAAACUAGGAGCACCAUUUCGCUGCCAGUGAAGAAAUGGACAAAGAAAAUCUGGGCCAGGCAGGCAUCAAAAGAAAUAGUCUUGCGCUCAACCAGAAAGUCUGUAAUCAUUUUAAGGGUA [U2C A59G], for which the self-cleavage was 0.91.

In the case of GCUAACGGUCAUAGGCCAUGGAAACUAGGAGCACCAUUUCGCUGCCAGUGAAGAAAUGAACAGAGAAAAUCUGGGCCAGGCAGGCAUCAAAAGAAAUAGUCUUGCGCUCAACCAGAAAGUCUGUAAUCAUUUUAAGGGUA [U2C A63G], the self-cleavage was 1.12.

Turning to GAUAACGGUCAUAGGCCAUGGAAACUAGGAGCACCAUUUCGCUGCCAGUGAAGAAAUGAACAAAGAAAAUCUGGGCCAGGCAGGCAUCAAAAGAAAUAGUCCUGCGCUCAACCAGAAAGUCUGUAAUCAUUUUAAGGGUA [U2A U102C], the self-cleavage stood at 1.15.

GAUAACGGUCAUAGGCCAUGGAAACUAGGAGCACCAUUUCGCUGCCAGUGAAGAAAUGAACAAAGAAAAUCUGGGCCAGGCAGGCAUCAAAAGAAAUAGUCUUGCGCUCAACCAGAAAGUCUGUAAUCAUCUUAAGGGUA [U2A U131C]: the self-cleavage turned out to be 0.69.

GCUAACGGUCAUAGGCCAUGGAAACUAGGAGCACCAUUUCGCUGCCAGUGAAGAAAUGAACAAGGAAAAUCUGGGCCAGGCAGGCAUCAAAAGAAAUAGUCUUGCGCUCAACCAGAAAGUCUGUAAUCAUUUUAAGGGUA [U2C A64G]: the self-cleavage was determined as 1.48.

Take GCUAACGGUCGUAGGCCAUGGAAACUAGGAGCACCAUUUCGCUGCCAGUGAAGAAAUGAACAAAGAAAAUCUGGGCCAGGCAGGCAUCAAAAGAAAUAGUCUUGCGCUCAACCAGAAAGUCUGUAAUCAUUUUAAGGGUA [U2C A11G]: the self-cleavage stood at 1.16.

GAUAACGGUCAUAGGCCAUGGAAACUAGGAGCACCAUUUCGCUGCCAGUGAAGAAAUGAACAAAGAAAAUCUGGGCCAGGCAGGCAUCAAAAGAAAUAGUCUUGCGCUCAACCAGAAAGUCCGUAAUCAUUUUAAGGGUA [U2A U122C]: the self-cleavage turned out to be 0.72.

Regarding GCUAACGGUCAUAGGCCAUGGAAACUAGGAGCACCAUUUCGCUGCCAGUGACGAAAUGAACAAAGAAAAUCUGGGCCAGGCAGGCAUCAAAAGAAAUAGUCUUGCGCUCAACCAGAAAGUCUGUAAUCAUUUUAAGGGUA [U2C A52C], the self-cleavage stood at 1.25.

Consider GCUAACGGUCAUAGGCCAUGGAAACUAGGAGCACCAUUUCGCUGCCAGUGAGGAAAUGAACAAAGAAAAUCUGGGCCAGGCAGGCAUCAAAAGAAAUAGUCUUGCGCUCAACCAGAAAGUCUGUAAUCAUUUUAAGGGUA [U2C A52G], for which the self-cleavage came out at 1.19.

Consider GAUAACGGUCAUAGGCCAUGGAAACUAGGAGCACCAUUUCGCUGCCAGUGAAGAAAUGAACAAAGAAAAUCCGGGCCAGGCAGGCAUCAAAAGAAAUAGUCUUGCGCUCAACCAGAAAGUCUGUAAUCAUUUUAAGGGUA [U2A U72C], for which the self-cleavage turned out to be 0.48.

In the case of GCUAACGGUCAUAGGCCAUGGAUACUAGGAGCACCAUUUCGCUGCCAGUGAAGAAAUGAACAAAGAAAAUCUGGGCCAGGCAGGCAUCAAAAGAAAUAGUCUUGCGCUCAACCAGAAAGUCUGUAAUCAUUUUAAGGGUA [U2C A23U], the self-cleavage came to 1.22.

On to GCUAACGGUCAUAGGCCAUGGAAACUAGGAGCUCCAUUUCGCUGCCAGUGAAGAAAUGAACAAAGAAAAUCUGGGCCAGGCAGGCAUCAAAAGAAAUAGUCUUGCGCUCAACCAGAAAGUCUGUAAUCAUUUUAAGGGUA [U2C A33U], for which the self-cleavage amounted to 1.24.

Regarding GCUAACGGUCAUAGGCCAUGGAAACUAGGAGCGCCAUUUCGCUGCCAGUGAAGAAAUGAACAAAGAAAAUCUGGGCCAGGCAGGCAUCAAAAGAAAUAGUCUUGCGCUCAACCAGAAAGUCUGUAAUCAUUUUAAGGGUA [U2C A33G], the self-cleavage was found to be 0.74.

Consider GAUAACGGCCAUAGGCCAUGGAAACUAGGAGCACCAUUUCGCUGCCAGUGAAGAAAUGAACAAAGAAAAUCUGGGCCAGGCAGGCAUCAAAAGAAAUAGUCUUGCGCUCAACCAGAAAGUCUGUAAUCAUUUUAAGGGUA [U2A U9C], for which the self-cleavage stood at 1.52.

Turning to GCUAACGGUCAUAGGCCAUGGAAACUAGGAGCACCAUUUCGCUGCCAGUGAAGAAAUGAACCAAGAAAAUCUGGGCCAGGCAGGCAUCAAAAGAAAUAGUCUUGCGCUCAACCAGAAAGUCUGUAAUCAUUUUAAGGGUA [U2C A62C], the self-cleavage turned out to be 1.39.

GCUAACGGUCAUAGGCCAUGGAAACUAGGAGCACCAUUUCGCUGCCAGUGAAGAAAUGAACGAAGAAAAUCUGGGCCAGGCAGGCAUCAAAAGAAAUAGUCUUGCGCUCAACCAGAAAGUCUGUAAUCAUUUUAAGGGUA [U2C A62G]: the self-cleavage came to 0.36.

On to GAUAACGGUCAUAGGCCAUGGAAACUAGGAGCACCAUCUCGCUGCCAGUGAAGAAAUGAACAAAGAAAAUCUGGGCCAGGCAGGCAUCAAAAGAAAUAGUCUUGCGCUCAACCAGAAAGUCUGUAAUCAUUUUAAGGGUA [U2A U38C], for which the self-cleavage stood at 1.82.

GCUAACGGUCAUAGGCCAUGGAAACUAGGAGCACCAUUUCGCUGCCAGUGAAGAAAUGAGCAAAGAAAAUCUGGGCCAGGCAGGCAUCAAAAGAAAUAGUCUUGCGCUCAACCAGAAAGUCUGUAAUCAUUUUAAGGGUA [U2C A60G]: the self-cleavage worked out at 1.02.

On to GCUAACGGUCAUAGGCCAUGGAAUCUAGGAGCACCAUUUCGCUGCCAGUGAAGAAAUGAACAAAGAAAAUCUGGGCCAGGCAGGCAUCAAAAGAAAUAGUCUUGCGCUCAACCAGAAAGUCUGUAAUCAUUUUAAGGGUA [U2C A24U], for which the self-cleavage worked out at 1.45.

Consider GCUAACGGUCAUAGGCCAUGGAACCUAGGAGCACCAUUUCGCUGCCAGUGAAGAAAUGAACAAAGAAAAUCUGGGCCAGGCAGGCAUCAAAAGAAAUAGUCUUGCGCUCAACCAGAAAGUCUGUAAUCAUUUUAAGGGUA [U2C A24C], for which the self-cleavage was determined as 1.16.

Turning to GAUAACGGUCAUAGGCCAUGGAAACUAGGAGCACCAUUUCGCUGCCAGUGAAGAAAUGAACAAAGAAAACCUGGGCCAGGCAGGCAUCAAAAGAAAUAGUCUUGCGCUCAACCAGAAAGUCUGUAAUCAUUUUAAGGGUA [U2A U70C], the self-cleavage turned out to be 0.67.

Turning to GCUAACGGUCAUUGGCCAUGGAAACUAGGAGCACCAUUUCGCUGCCAGUGAAGAAAUGAACAAAGAAAAUCUGGGCCAGGCAGGCAUCAAAAGAAAUAGUCUUGCGCUCAACCAGAAAGUCUGUAAUCAUUUUAAGGGUA [U2C A13U], the self-cleavage stood at 1.78.

On to GCUAACGGUCAUAGGCCGUGGAAACUAGGAGCACCAUUUCGCUGCCAGUGAAGAAAUGAACAAAGAAAAUCUGGGCCAGGCAGGCAUCAAAAGAAAUAGUCUUGCGCUCAACCAGAAAGUCUGUAAUCAUUUUAAGGGUA [U2C A18G], for which the self-cleavage was determined as 0.6.

Consider GCUAACGGUCAUAGGCCUUGGAAACUAGGAGCACCAUUUCGCUGCCAGUGAAGAAAUGAACAAAGAAAAUCUGGGCCAGGCAGGCAUCAAAAGAAAUAGUCUUGCGCUCAACCAGAAAGUCUGUAAUCAUUUUAAGGGUA [U2C A18U], for which the self-cleavage was determined as 0.37.

Take GAUAACGGUCAUAGGCCAUGGAAACUAGGAGCACCAUUCCGCUGCCAGUGAAGAAAUGAACAAAGAAAAUCUGGGCCAGGCAGGCAUCAAAAGAAAUAGUCUUGCGCUCAACCAGAAAGUCUGUAAUCAUUUUAAGGGUA [U2A U39C]: the self-cleavage was found to be 1.26.

For GAUAACGGUCAUAGGCCAUGGAAACUAGGAGCACCAUUUCGCUGCCAGUGAAGAAAUGAACAAAGAAAAUCUGGGCCAGGCAGGCAUCAAAAGAAAUAGUCUUGCGCUCAACCAGAAAGUCUGUAAUCAUUUUAAGGGGA [U2A U139G], the self-cleavage worked out at 0.81.

Turning to GAUAACGGUCAUAGGCCAUGGAAACUAGGAGCACCAUUUCGCUGCCAGUGAAGAAAUGAACAAAGAAAAUCUGGGCCAGGCAGGCAUCAAAAGAAAUAGUCUUGCGCUCAACCAGAAAGUCUGUAAUCAUUUUAAGGGAA [U2A U139A], the self-cleavage came to 1.04.

On to GAUAACGGUCACAGGCCAUGGAAACUAGGAGCACCAUUUCGCUGCCAGUGAAGAAAUGAACAAAGAAAAUCUGGGCCAGGCAGGCAUCAAAAGAAAUAGUCUUGCGCUCAACCAGAAAGUCUGUAAUCAUUUUAAGGGUA [U2A U12C], for which the self-cleavage is 1.41.

Turning to GAUAACGGUCAUAGGCCAUGGAAACUAGGAGCACCAUUUCGCCGCCAGUGAAGAAAUGAACAAAGAAAAUCUGGGCCAGGCAGGCAUCAAAAGAAAUAGUCUUGCGCUCAACCAGAAAGUCUGUAAUCAUUUUAAGGGUA [U2A U43C], the self-cleavage was found to be 0.84.

GAUAACGGUCAUAGGCCAUGGAAACUAGGAGCACCAUUUCGCUGCCAGUGAAGAAACGAACAAAGAAAAUCUGGGCCAGGCAGGCAUCAAAAGAAAUAGUCUUGCGCUCAACCAGAAAGUCUGUAAUCAUUUUAAGGGUA [U2A U57C]: the self-cleavage was determined as 0.92.

Consider GCUAACGGUCAUAGGCCAUGGAAACUAGGAGCACCAUUUCGCUGCCAGUGAAGAAGUGAACAAAGAAAAUCUGGGCCAGGCAGGCAUCAAAAGAAAUAGUCUUGCGCUCAACCAGAAAGUCUGUAAUCAUUUUAAGGGUA [U2C A56G], for which the self-cleavage was found to be 1.12.
